Measurements from patent US20200024322A1 (Eli Lilly, published 2020).
Substitutions are numbered along the chain they refer to. Numbered stars: 1 amine (or outer) side, 2 acyl side, 3 side chain; on linkers, the order of the positions; unused ones are H or OH. Square brackets hold non-standard residues; d marks the D form. Side chains are listed from the residue outwards. Ends that are not written are not given here. * marks the point of attachment. C20 diacid = O=C(O)CCCCCCCCCCCCCCCCCCC(=O)*; γGlu = O=C(O)[C@H](CCC(=O)[*:2])N[*:1]; αMeL = CC(C)C[C@](C)(N)C(=O)O; αMeK = C[C@](N)(CCCCN)C(=O)O; AEEA = NCCOCCOCC(=O)O; Aib = CC(C)(N)C(=O)O

T1: human GIP receptor (human, UniProt P48546 22-466)
T1 construct: whole, on cells; Used as crude membranes of stably transfected CHO cells; also called hGIPR
T1 sequence (looked up): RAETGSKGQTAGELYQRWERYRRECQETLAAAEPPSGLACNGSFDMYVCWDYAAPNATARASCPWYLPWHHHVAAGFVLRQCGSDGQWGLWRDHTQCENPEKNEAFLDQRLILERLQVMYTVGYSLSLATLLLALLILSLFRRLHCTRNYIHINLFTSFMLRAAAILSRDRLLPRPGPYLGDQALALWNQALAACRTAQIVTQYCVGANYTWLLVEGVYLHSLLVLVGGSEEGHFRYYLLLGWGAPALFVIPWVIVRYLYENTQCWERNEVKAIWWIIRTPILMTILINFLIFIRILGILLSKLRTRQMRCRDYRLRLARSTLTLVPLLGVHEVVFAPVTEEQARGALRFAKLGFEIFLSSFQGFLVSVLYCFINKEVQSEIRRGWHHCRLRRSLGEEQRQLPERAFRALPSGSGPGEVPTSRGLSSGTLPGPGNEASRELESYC

B1: Example 50 (peptide)
peptide: Y[Aib]EGTFTSDYSILLDKK([AEEA-AEEA-γGlu-C20 diacid])AQ[Aib]AFIEYLIEGGPSSG-NH2
modifications: N-terminus assumed
SMILES: CC[C@H](C)[C@H](NC(=O)[C@H](CC(C)C)NC(=O)[C@H](Cc1ccc(O)cc1)NC(=O)[C@H](CCC(=O)O)NC(=O)[C@@H](NC(=O)[C@H](Cc1ccccc1)NC(=O)[C@H](C)NC(=O)C(C)(C)NC(=O)[C@H](CCC(N)=O)NC(=O)[C@H](C)NC(=O)[C@H](CCCCNC(=O)COCCOCCNC(=O)COCCOCCNC(=O)CC[C@H](NC(=O)CCCCCCCCCCCCCCCCCCC(=O)O)C(=O)O)NC(=O)[C@H](CCCCN)NC(=O)[C@H](CC(=O)O)NC(=O)[C@H](CC(C)C)NC(=O)[C@H](CC(C)C)NC(=O)[C@@H](NC(=O)[C@H](CO)NC(=O)[C@H](Cc1ccc(O)cc1)NC(=O)[C@H](CC(=O)O)NC(=O)[C@H](CO)NC(=O)[C@@H](NC(=O)[C@H](Cc1ccccc1)NC(=O)[C@@H](NC(=O)CNC(=O)[C@H](CCC(=O)O)NC(=O)C(C)(C)NC(=O)[C@@H](N)Cc1ccc(O)cc1)[C@@H](C)O)[C@@H](C)O)[C@@H](C)CC)[C@@H](C)CC)C(=O)N[C@@H](CCC(=O)O)C(=O)NCC(=O)NCC(=O)N1CCC[C@H]1C(=O)N[C@@H](CO)C(=O)N[C@@H](CO)C(=O)NCC(N)=O
B2: Example 2 (peptide)
peptide: YXEGTXTSDYSIXLDXKAQXEFIXYLIEGGPSSGAPPPS
modifications: Aib2; αMeF(2F)6; αMeL13; Orn16; K17((2-[2-(2-Amino-ethoxy)-ethoxy]-acetyl)2-(γ-Glu)-CO-(CH2)16-CO2H); Aib20; D-Glu24; C-terminal NH2
B3: Example 57 (peptide)
peptide: B2 peptide with X13L, X16K, E21A, X24E
modifications: Aib2; αMeF6; K17((2-[2-(2-Amino-ethoxy)-ethoxy]-acetyl)2-(γ-Glu)-CO-(CH2)18-CO2H); Aib20; C-terminal NH2
B4: Example 59 (peptide)
peptide: B2 peptide with X6F, X16E, E21A, X24E
modifications: Aib2; αMeL13; K17((2-[2-(2-Amino-ethoxy)-ethoxy]-acetyl)2-(γ-Glu)-CO-(CH2)18-CO2H); Aib20; C-terminal NH2
B5: Example 21 (peptide)
peptide: Y[Aib]EGTFTSDYSI[αMeL]LDEK([AEEA-AEEA-γGlu-C20 diacid])AQ[αMeK]AFIEYLLEGGPSSGAPPPS-NH2
modifications: N-terminus assumed
SMILES: CC[C@H](C)[C@H](NC(=O)[C@H](Cc1ccccc1)NC(=O)[C@H](C)NC(=O)[C@](C)(CCCCN)NC(=O)[C@H](CCC(N)=O)NC(=O)[C@H](C)NC(=O)[C@H](CCCCNC(=O)COCCOCCNC(=O)COCCOCCNC(=O)CC[C@H](NC(=O)CCCCCCCCCCCCCCCCCCC(=O)O)C(=O)O)NC(=O)[C@H](CCC(=O)O)NC(=O)[C@H](CC(=O)O)NC(=O)[C@H](CC(C)C)NC(=O)[C@](C)(CC(C)C)NC(=O)[C@@H](NC(=O)[C@H](CO)NC(=O)[C@H](Cc1ccc(O)cc1)NC(=O)[C@H](CC(=O)O)NC(=O)[C@H](CO)NC(=O)[C@@H](NC(=O)[C@H](Cc1ccccc1)NC(=O)[C@@H](NC(=O)CNC(=O)[C@H](CCC(=O)O)NC(=O)C(C)(C)NC(=O)[C@@H](N)Cc1ccc(O)cc1)[C@@H](C)O)[C@@H](C)O)[C@@H](C)CC)C(=O)N[C@@H](CCC(=O)O)C(=O)N[C@@H](Cc1ccc(O)cc1)C(=O)N[C@@H](CC(C)C)C(=O)N[C@@H](CC(C)C)C(=O)N[C@@H](CCC(=O)O)C(=O)NCC(=O)NCC(=O)N1CCC[C@H]1C(=O)N[C@@H](CO)C(=O)N[C@@H](CO)C(=O)NCC(=O)N[C@@H](C)C(=O)N1CCC[C@H]1C(=O)N1CCC[C@H]1C(=O)N1CCC[C@H]1C(=O)N[C@@H](CO)C(N)=O
B6: Example 128 (peptide)
peptide: YXEGTXTSDHSILLDKKAQXAFIEYLIEGGPSSGAPPPS
modifications: Aib2; αMeF6; K17((2-[2-(2-Amino-ethoxy)-ethoxy]-acetyl)2-(γ-Glu)-CO-(CH2)18-CO2H); Aib20; C-terminal NH2
B7: Example 66 (peptide)
peptide: YXEGTFTSDYSIXLDEKAQXAFIEYLLEGGPSSGAPPPS
modifications: Aib2; αMeL13; K17((2-[2-(2-Amino-ethoxy)-ethoxy]-acetyl)2-(γ-Glu)-CO-(CH2)18-CO2H); Aib20; C-terminal NH2
B8: Example 20 (peptide)
peptide: B7 peptide with E16K, L27I
modifications: Aib2; αMeL13; K17((2-[2-(2-Amino-ethoxy)-ethoxy]-acetyl)2-(γ-Glu)-CO-(CH2)18-CO2H); Aib20; C-terminal NH2
B9: Example 61 (peptide)
peptide: B7 peptide with E16S
modifications: Aib2; αMeL13; K17((2-[2-(2-Amino-ethoxy)-ethoxy]-acetyl)2-(γ-Glu)-CO-(CH2)18-CO2H); Aib20; C-terminal NH2
B10: Example 53 (peptide)
peptide: B7 peptide with Y1H, E16K, L27I
modifications: Aib2; αMeL13; K17((2-[2-(2-Amino-ethoxy)-ethoxy]-acetyl)2-(γ-Glu)-CO-(CH2)18-CO2H); Aib20; C-terminal NH2
B11: Example 127 (peptide)
peptide: B6 peptide with H10I
modifications: Aib2; αMeF6; K17((2-[2-(2-Amino-ethoxy)-ethoxy]-acetyl)2-(γ-Glu)-CO-(CH2)18-CO2H); Aib20; C-terminal NH2
B12: Example 54 (peptide)
peptide: H[Aib]EGTFTSDYSI[αMeL]LDKK([AEEA-AEEA-γGlu-C20 diacid])AQHAFIEYLIEGGPSSGAPPPS-NH2
modifications: N-terminus assumed
SMILES: CC[C@H](C)[C@H](NC(=O)[C@H](CC(C)C)NC(=O)[C@H](Cc1ccc(O)cc1)NC(=O)[C@H](CCC(=O)O)NC(=O)[C@@H](NC(=O)[C@H](Cc1ccccc1)NC(=O)[C@H](C)NC(=O)[C@H](Cc1c[nH]cn1)NC(=O)[C@H](CCC(N)=O)NC(=O)[C@H](C)NC(=O)[C@H](CCCCNC(=O)COCCOCCNC(=O)COCCOCCNC(=O)CC[C@H](NC(=O)CCCCCCCCCCCCCCCCCCC(=O)O)C(=O)O)NC(=O)[C@H](CCCCN)NC(=O)[C@H](CC(=O)O)NC(=O)[C@H](CC(C)C)NC(=O)[C@](C)(CC(C)C)NC(=O)[C@@H](NC(=O)[C@H](CO)NC(=O)[C@H](Cc1ccc(O)cc1)NC(=O)[C@H](CC(=O)O)NC(=O)[C@H](CO)NC(=O)[C@@H](NC(=O)[C@H](Cc1ccccc1)NC(=O)[C@@H](NC(=O)CNC(=O)[C@H](CCC(=O)O)NC(=O)C(C)(C)NC(=O)[C@@H](N)Cc1c[nH]cn1)[C@@H](C)O)[C@@H](C)O)[C@@H](C)CC)[C@@H](C)CC)C(=O)N[C@@H](CCC(=O)O)C(=O)NCC(=O)NCC(=O)N1CCC[C@H]1C(=O)N[C@@H](CO)C(=O)N[C@@H](CO)C(=O)NCC(=O)N[C@@H](C)C(=O)N1CCC[C@H]1C(=O)N1CCC[C@H]1C(=O)N1CCC[C@H]1C(=O)N[C@@H](CO)C(N)=O
B13: Example 51 (peptide)
peptide: Y[Aib]EGTFTSDYSILLDKK([AEEA-AEEA-γGlu-C20 diacid])AQ[Aib]AFIEYLIEGG-NH2
modifications: N-terminus assumed
SMILES: CC[C@H](C)[C@H](NC(=O)[C@H](CC(C)C)NC(=O)[C@H](Cc1ccc(O)cc1)NC(=O)[C@H](CCC(=O)O)NC(=O)[C@@H](NC(=O)[C@H](Cc1ccccc1)NC(=O)[C@H](C)NC(=O)C(C)(C)NC(=O)[C@H](CCC(N)=O)NC(=O)[C@H](C)NC(=O)[C@H](CCCCNC(=O)COCCOCCNC(=O)COCCOCCNC(=O)CC[C@H](NC(=O)CCCCCCCCCCCCCCCCCCC(=O)O)C(=O)O)NC(=O)[C@H](CCCCN)NC(=O)[C@H](CC(=O)O)NC(=O)[C@H](CC(C)C)NC(=O)[C@H](CC(C)C)NC(=O)[C@@H](NC(=O)[C@H](CO)NC(=O)[C@H](Cc1ccc(O)cc1)NC(=O)[C@H](CC(=O)O)NC(=O)[C@H](CO)NC(=O)[C@@H](NC(=O)[C@H](Cc1ccccc1)NC(=O)[C@@H](NC(=O)CNC(=O)[C@H](CCC(=O)O)NC(=O)C(C)(C)NC(=O)[C@@H](N)Cc1ccc(O)cc1)[C@@H](C)O)[C@@H](C)O)[C@@H](C)CC)[C@@H](C)CC)C(=O)N[C@@H](CCC(=O)O)C(=O)NCC(=O)NCC(N)=O
B14: Example 49 (peptide)
peptide: Y[Aib]EGTFTSDYSILLDKIAQ[Aib]AFIEYLIEGGPSSGAPPPSK([AEEA-AEEA-γGlu-C20 diacid])-NH2
modifications: N-terminus assumed
SMILES: CC[C@H](C)[C@H](NC(=O)[C@H](CCCCN)NC(=O)[C@H](CC(=O)O)NC(=O)[C@H](CC(C)C)NC(=O)[C@H](CC(C)C)NC(=O)[C@@H](NC(=O)[C@H](CO)NC(=O)[C@H](Cc1ccc(O)cc1)NC(=O)[C@H](CC(=O)O)NC(=O)[C@H](CO)NC(=O)[C@@H](NC(=O)[C@H](Cc1ccccc1)NC(=O)[C@@H](NC(=O)CNC(=O)[C@H](CCC(=O)O)NC(=O)C(C)(C)NC(=O)[C@@H](N)Cc1ccc(O)cc1)[C@@H](C)O)[C@@H](C)O)[C@@H](C)CC)C(=O)N[C@@H](C)C(=O)N[C@@H](CCC(N)=O)C(=O)NC(C)(C)C(=O)N[C@@H](C)C(=O)N[C@@H](Cc1ccccc1)C(=O)N[C@H](C(=O)N[C@@H](CCC(=O)O)C(=O)N[C@@H](Cc1ccc(O)cc1)C(=O)N[C@@H](CC(C)C)C(=O)N[C@H](C(=O)N[C@@H](CCC(=O)O)C(=O)NCC(=O)NCC(=O)N1CCC[C@H]1C(=O)N[C@@H](CO)C(=O)N[C@@H](CO)C(=O)NCC(=O)N[C@@H](C)C(=O)N1CCC[C@H]1C(=O)N1CCC[C@H]1C(=O)N1CCC[C@H]1C(=O)N[C@@H](CO)C(=O)N[C@@H](CCCCNC(=O)COCCOCCNC(=O)COCCOCCNC(=O)CC[C@H](NC(=O)CCCCCCCCCCCCCCCCCCC(=O)O)C(=O)O)C(N)=O)[C@@H](C)CC)[C@@H](C)CC

target: T2, human GLP-1 receptor (human, UniProt P43220 24-463); test: SPA, [125I]-GLP-1 displacement, hGLP-1R membranes
T2 construct: whole, on cells; Used as crude membranes of stably transfected HEK293 cells; also called hGLP1R; hGLP-1R

| Binder | Ki [nM] |
| --- | --- |
| B1 | 4.71 |
| B2 | 2.35 |
| B3 | 3 |
| B4 | 8.2 |
| B5 | 14.5 |
| B6 | 1.88 |
| B7 | 7.53 |
| B8 | 3.3 |
| B9 | 11.1 |
| B10 | 1.23 |
| B11 | 1.86 |
| B12 | 1.66 |
| B13 | 5.62 |
| B14 | 12.3 |

target: T3, human glucagon receptor (human, UniProt P47871 26-477); test: SPA, [125I]-Gcg displacement, hGcgR membranes
T3 construct: whole, on cells; Used as crude membranes of stably transfected HEK293 cells; also called hGcgR; hGLcgR
T3 sequence (P47871 26-477): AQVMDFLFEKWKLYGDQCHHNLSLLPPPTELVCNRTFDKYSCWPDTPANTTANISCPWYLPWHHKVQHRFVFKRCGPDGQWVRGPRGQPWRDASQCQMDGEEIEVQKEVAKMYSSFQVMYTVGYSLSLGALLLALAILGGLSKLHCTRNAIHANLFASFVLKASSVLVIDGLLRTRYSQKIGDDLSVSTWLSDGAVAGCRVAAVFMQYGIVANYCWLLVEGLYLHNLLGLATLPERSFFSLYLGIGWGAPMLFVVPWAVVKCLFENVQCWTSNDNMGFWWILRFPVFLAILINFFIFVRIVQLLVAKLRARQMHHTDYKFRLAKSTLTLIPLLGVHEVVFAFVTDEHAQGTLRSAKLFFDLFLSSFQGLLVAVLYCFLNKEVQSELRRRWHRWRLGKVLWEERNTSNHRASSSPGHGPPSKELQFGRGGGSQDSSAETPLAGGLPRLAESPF

| Binder | Ki [nM] |
| --- | --- |
| B1 | 220 |
| B2 | 361 |
| B3 | 26.1 |
| B4 | 292 |
| B5 | 149 |
| B6 | 433 |
| B7 | 93.7 |
| B8 | 228 |
| B9 | 110 |
| B10 | 216 |
| B11 | 43.6 |
| B12 | 333 |
| B13 | 195 |
| B14 | 236 |

target: T1, human GIP receptor; test: SPA, [125I]-GIP displacement, hGIPR membranes

| Binder | Ki [nM] |
| --- | --- |
| B1 | 0.0568 |
| B2 | 0.06 |
| B3 | 0.0583 |
| B4 | 0.136 |
| B5 | 0.529 |
| B6 | 0.0625 |
| B7 | 0.106 |
| B8 | 0.0849 |
| B9 | 0.102 |
| B10 | 0.188 |
| B11 | 0.126 |
| B12 | 0.965 |
| B13 | 0.062 |
| B14 | 0.087 |
